Experimental data taken from patent US20260184815A1 (published 2026).
Residue numbers refer to the chain shown, from its start.

B1: M12-D10 (Fab, V domains shown)
VH: EVQLLESGGGLVQPGGSLRLSCAASGFTFSNYPMDWVRQAPGKGLEWVSSISSSGGWTNYADSVKGRFTISRDNSKNTLYLQMNSLRAEDTAVYYCATDTSGSYLGFDYWGQGTLVTVSS
VL: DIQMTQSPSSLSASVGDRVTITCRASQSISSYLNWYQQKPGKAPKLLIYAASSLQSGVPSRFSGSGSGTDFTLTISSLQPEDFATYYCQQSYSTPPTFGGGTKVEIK
notes: HC as printed runs into CH1
B2: M12-E06 (Fab, V domains shown)
VH: EVQLLESGGGLVQPGGSLRLSCAASGFTFSQYKMLWVRQAPGKGLEWVSGIGPSGGLTAYADSVKGRFTISRDNSKNTLYLQMNSLRAEDTAVYYCARAPWFGELGMDVWGQGTTVTVSS
VL: DIQMTQSPSSLSASVGDRVSITCRASQSISTYLNWYQHKPGKAPTLLIYGAFSLQSGVPSRFSGSGSGTDFALTISSLQPEDFATYYCQQSHSTPPTFGQGTRVEIK
notes: HC as printed runs into CH1
B3: M12-B04 (Fab, V domains shown)
VH: EVQLLESGGGLVQPGGSLRLSCAASGFTFSLYSMYWVRQAPGKGLEWVSRIRPSGGGTVYADSVKGRFTISRDNSKNTLYLQMNSLRAEDTAVYYCARDPLYSSGDVWGQGTTVTVSS
VL: DIQMTQSPSSLSASVGDRVTITCRASQGIRNDLGWYQHKPGKAPKLLIYAASILQSGVPSRFSGTASGTDFTLTISSLQPEDFATYFCLQDYEYPLTFGGGTKLDIK
notes: HC as printed runs into CH1
B4: M11-G09 (Fab, V domains shown)
VH: EVQLLESGGGLVQPGGSLRLSCAASGFTFSLYNMTWVRQAPGKGLEWVSYIYPSGGGTHYADSVKGRFTISRDNSKNTLYLQMNSLRAEDTAVYYCARDTGFWSADAFDIWGQGTMVTVSS
VL: DIQMTQSPSSLSASVGDRVTITCRTSQGINHYLNWYQQKPGKAPKILVFAASELQTGVPSRFSGTGSGTSYTLTITSLQPEDVATYYCQQTYTSPYTFGQGTKLEVK
notes: HC as printed runs into CH1
B5: M27-B12 (Fab, V domains shown)
VH: EVQLLESGGGLVQPGGSLRLSCAASGFTFSWYQMMWVRQAPGKGLEWVSSISPSGGITEYADSVKGRFTISRDNSKNTLYLQMNSLRAEDTAVYYCARDRSSGWYYYGMDVWGQGTTVTVSS
VL: QYELTQPPAVSVSPGQTATITCSGDKLGDEYAAWYQQKPGQSPVLVIYQDRKRPSGIPERFSGSNFGNTATLTITGTQVMDEADYYCQAWGKRNVVFGGGTKLTVL
notes: HC as printed runs into CH1
B6: M11-G12 (Fab, V domains shown)
VH: EVQLLESGGGLVQPGGSLRLSCAASGFTFSQYPMNWVRQAPGKGLEWVSSISSSGGFTTYADSVKGRFTISRDNSKNTLYLQMNSLRAEDTAVYYCAREEQQGGFDYWGQGTLVTVSS
VL: DIQMTQSPSSLSAFVGDRVSITCRASQTISVYVNWYQHKSGQAPKLLIYGASSLQSGVPSRFSGSGSGTDFTLTISSLQPEDFATYFCQQSYSIPFTFGGGTDVQIR
notes: HC as printed runs into CH1
B7: M12-C10 (Fab, V domains shown)
VH: EVQLLESGGGLVQPGGSLRLSCAASGFTFSDYEMHWVRQAPGKGLEWVSGISPSGGKTQYADSVKGRFTISRDNSKNTLYLQMNSLRAEDTAVYYCARDLKWGGRGSPDWYFDLWGRGTLVTVSS
VL: QSALTQPPSVSVSPGQTASITCSGDKLGEKYVSWYQQKPGQSPVVVIYQDNKRPSGIPERFSGSNSGNTATLTISGTQAVDEADYYCQAWDSYTVVFGGGSKLTVLG
notes: HC as printed runs into CH1
B8: M27-B01 (Fab, V domains shown)
VH: EVQLLESGGGLVQPGGSLRLSCAASGFTFSDYTMWWVRQAPGKGLEWVSSISSSGGITFYADSVKGRFTISRDNSKNTLYLQMNSLRAEDTAVYYCARSADTAMGGAFDIWGQGTMVTVSS
VL: not shown
notes: HC as printed runs into CH1
B9: M27-G09 (Fab, V domains shown)
VH: EVQLLESGGGLVQPGGSLRLSCAASGFTFSEYDMAWVRQAPGKGLEWVSYIVSSGGFTSYADSVKGRFTISRDNSKNTLYLQMNSLRAEDTAVYYCTTWAGWIAAADYWGQGTLVTVSS
VL: DIQMTQSPSSVSASVGDRITITCRTRQSISNYLNWYQQKPGEPPKLLIFAASSLQSGVPSRFSGSGTGTEFTLTISSLQPEDLAIYYCQQSYDIPFTFGQGTKLEIK
notes: HC as printed runs into CH1
B10: M27-F04 (Fab, V domains shown)
VH: EVQLLESGGGLVQPGGSLRLSCAASGFTFSWYPMTWVRQAPGKGLEWVSSIGPSGGQTIYADSVKGRFTISRDNSKNTLYLQMNSLRAEDTAVYYCTTEYGDYGGGFDPWGQGTLVTVSS
VL: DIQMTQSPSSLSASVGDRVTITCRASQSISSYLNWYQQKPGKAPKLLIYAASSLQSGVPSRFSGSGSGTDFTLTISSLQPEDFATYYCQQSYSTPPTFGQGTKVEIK
notes: HC as printed runs into CH1
B11: M27-E03 (Fab, V domains shown)
VH: EVQLLESGGGLVQPGGSLRLSCAASGFTFSSYMMHWVRQAPGKGLEWVSGIYPSGGWTDYADSVKGRFTISRDNSKNTLYLQMNSLRAEDTATYYCARLVAGLDAFDIWGQGTMVTVSS
VL: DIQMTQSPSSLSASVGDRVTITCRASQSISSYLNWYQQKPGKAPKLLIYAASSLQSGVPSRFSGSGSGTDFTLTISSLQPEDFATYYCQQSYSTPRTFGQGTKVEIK
notes: HC as printed runs into CH1
B12: M27-G04 (Fab, V domains shown)
VH: EVQLLESGGGLVQPGGSLRLSCAASGFTFSAYYMVWVRQAPGKGLEWVSYISPSGGQTQYADSVKGRFTISRDNSKNTLYLQMNSLRAEDTAVYYCAREAISSSSFDYWGQGTLVTVSS
VL: DIQMTQSPSSLSASVGDRVTITCRASQRISYYLTWYQQKPGKVPKLLIYAASSLESGVPSRFSGSGSGTDFTLTISNLQPEDFATYYCQQAFSTPFTFGGGTKVEIK
notes: HC as printed runs into CH1
B13: M12-C09 (Fab, V domains shown)
VH: EVQLLESGGGLVQPGGSLRLSCAASGFTFSSYAMVWVRQAPGKGLEWVSSIGSSGGFTLYADSVKGRFTISRDNSKNTLYLQMNSLRAEDTAVYYCASMNLGGGDAFDIWGQGTMVTVSS
VL: DIQMTQSPSSLSASVGDRVTITCRASQSIGIYLNWYHQKPGKAPNLLIYGASSLQSGVPSRFSGSGSGTDFTLTISSLQPGDFATYYCQHSYSTPFTFGGGTKVEIK
notes: HC as printed runs into CH1
B14: M12-A08 (Fab, V domains shown)
VH: EVQLLESGGGLVQPGGSLRLSCAASGFTFSWYYMGWVRQAPGKGLEWVSWIVSSGGLTLYADSVKGRFTISRDNSKNTLYLQMNSLRAEDTAMYYCARTTVTTGDAFDIWGQGTMVTVSS
VL: DIQMTQSPSSLSASVGDRVTITCRASQSISRYLNWYQQKPGKAPKLLIYAASTLETGVPSRFSGSGSGTDFTLTITTLQPEDFVIYYCQQSYSTPYTFGQGTKLEIK
notes: HC as printed runs into CH1
B15: M27-G01 (Fab, V domains shown)
VH: EVQLLESGGGLVQPGGSLRLSCAASGFTFSLYRMFWVRQAPGKGLEWVSSIWSSGGPTMYADSVKGRFTISRDNSKNTLYLQMNSLRAEDTAVYYCAREYPSTYYFDYWGQGTLVTVSS
VL: B14 VL with R31T, A50G, T53S, E55Q, T56S, T76S, T77S, V84T, T94D, E105D
notes: HC as printed runs into CH1
B16: M27-F11 (Fab, V domains shown)
VH: EVQLLESGGGLVQPGGSLRLSCAASGFTFSSYHMMWVRQAPGKGLEWVSSIYPSGGATMYADSVKGRFTISRDNSKNTLYLQMNSLRAEDTAMYYCARDGYHYGDYTYFQHWGQGTLVTVSS
VL: DIQMTQSPSFLSASVGDRVTITCRASQGISSYLAWYQQKPGKAPKLLIYAASSLQSGVPSRFSGSGSGTDFTLTISSLQPEDFATYYCQQSYNTLRTFGPGTKVDLK
notes: HC as printed runs into CH1
B17: M27-A10 (Fab, V domains shown)
VH: EVQLLESGGGLVQPGGSLRLSCAASGFTFSWYRMDWVRQAPGKGLEWVSSIWPSGGLTSYADSVKGRFTISRDNSKNTLYLQMNSLRAEDTAVYYCARGWAPGGDAFDIWGQGTMVTVSS
VL: DIQMTQSPSSLSASVGDRVTITCRASQSISAYLNWYQQKPGKAPQLLMYGVGSLQSGVPSRFSGSGSGTDFTLTISSLQPEDFATYFCQQGYTTPVTFGGGTKVEIK
notes: HC as printed runs into CH1

target: T1, human plasma kallikrein (human, UniProt P03952 20-390; P03952 391-638); assay: ELISA, biotinylated pKal signal over streptavidin background
T1 construct: also called pKal; Human pKal
Source text: Abbreviations used: “T/B” is the ELISA signal obtained using of the “target” (biotinylated plasma kallikrein) divided by the ELISA signal of the “background” (streptavidin); both of which were coated on microtiter plates, “nd” is not determined. The symbol “q” refers to the amber suppressible stop codon (TAG), which is translated as glutamine (Q) in strains of E. coli such as the TG1 cells that were used to express the Fab fragments.

T1 sequence (P03952 20-390, chain 1 of 2): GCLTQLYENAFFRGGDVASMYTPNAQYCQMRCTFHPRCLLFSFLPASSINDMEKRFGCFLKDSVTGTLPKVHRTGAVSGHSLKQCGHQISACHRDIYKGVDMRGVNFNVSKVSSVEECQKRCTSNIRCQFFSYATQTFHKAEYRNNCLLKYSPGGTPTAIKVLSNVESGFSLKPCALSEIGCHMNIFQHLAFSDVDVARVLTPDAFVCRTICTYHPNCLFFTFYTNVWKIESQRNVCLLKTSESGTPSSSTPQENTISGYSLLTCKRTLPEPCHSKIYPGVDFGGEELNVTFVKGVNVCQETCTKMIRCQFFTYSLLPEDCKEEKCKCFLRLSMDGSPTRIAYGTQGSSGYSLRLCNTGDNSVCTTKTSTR
T1 sequence (P03952 391-638, chain 2 of 2): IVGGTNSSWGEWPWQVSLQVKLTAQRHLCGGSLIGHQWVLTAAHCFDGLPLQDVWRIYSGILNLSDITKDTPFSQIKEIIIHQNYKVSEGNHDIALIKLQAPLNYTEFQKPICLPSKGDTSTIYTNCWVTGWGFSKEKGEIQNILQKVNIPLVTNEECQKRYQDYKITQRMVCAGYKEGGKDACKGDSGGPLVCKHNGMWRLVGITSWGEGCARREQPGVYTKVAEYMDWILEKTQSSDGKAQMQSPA

Compared with B1, B2 is higher in “ELISA (T/B)” value: 9.9 T/B for the first, 48 T/B for the second.

First: B3
Second: B4
The “ELISA (T/B)” value of the first is lower: 18 T/B for the first, 23.6 T/B for the second.

First: B5
Second: B6
The “ELISA (T/B)” value of the first is lower: 2.3 T/B for the first, 4.9 T/B for the second.

Going from B7 to B8, the “ELISA (T/B)” value rises from 8.3 T/B to 33.1 T/B.

First: B9
Second: B10
The “ELISA (T/B)” value of the first is lower: 2.2 T/B for the first, 10.5 T/B for the second.

First: B11
Second: B12
The “ELISA (T/B)” value of the first is higher: 35.9 T/B for the first, 4.1 T/B for the second.

First: B13
Second: B14
The “ELISA (T/B)” value of the first is lower: 7 T/B for the first, 40.4 T/B for the second.

Going from B15 to B16, the “ELISA (T/B)” value falls from 31.4 T/B to 10 T/B.

With B17 the “ELISA (T/B)” value was 3.2 T/B.
